# Data reported in patent US20250066503A1, “CELL INJURY INDUCING THERAPEUTIC DRUG FOR USE IN CANCER THERAPY” (CHUGAI SEIYAKU KABUSHIKI KAISHA, priority 2016, published 2025).
# Target: T1, soluble human CD3 epsilon chain (human, UniProt P07766 23-126)
# T1 construct: also called CD3ε
# Assay: SPR
# T1 sequence (P07766 23-126 limits assumed): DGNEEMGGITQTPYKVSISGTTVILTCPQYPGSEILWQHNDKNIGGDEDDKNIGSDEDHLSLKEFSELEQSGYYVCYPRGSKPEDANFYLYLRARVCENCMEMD
row,Kd,Binder
1,69.5 nM,"TR01H027-E22Hh/none-Hi-Kn010G3/L0000-k0 (antibody, V domains shown, one-arm) VH: QVQLVESGGGLVQPGGSLRLSCAASGFTFSNAWMHWVRQAPGKGLEWVAQIKSKSQNYATYYAESVKGRFTISRADSKNSIYLQMNSLKTEDTAVYYCRYVHYSASYGVDAWGQGTTVTVSS VL: DIVMTQSPLSLPVTPGEPASISCRSSQSLVHSNRNTYLHWYQQKPGQAPRLLIYKVSNRFSGVPDRFSGSGSGTDFTLKISRVEAEDVGVYYCGQGTQVPYTFGQGTKLEIKR"
2,75.5 nM,"TR01H031-E22Hh/none-Hi-Kn010G3/L0000-k0 (antibody, one-arm) VH: QVQLVESGGGVVQPGGSLRLSCAASGFTFSNAWMHWVRQAPGKGLEWVAQIKGKSNNYATYYAESVKGRFTISRADSKNSIYLQMNSLKTEDTAVYYCRYVHYSASYGVDIWGQGTTVTVSS light: DIVMTQSPLSLPVTPGEPASISCRSSQSLVHSNRNTYLHWYQQKPGQAPRLLIYKVSNRFSGVPDRFSGSGSGTDFTLKISRVEAEDVGVYYCGQGTQVPYTFGQGTKLEIKRTVAAPSVFIFPPSDEQLKSGTASVVCLLNNFYPREAKVQWKVDNALQSGNSQESVTEQDSKDSTYSLSSTLTLSKADYEKHKVYACEVTHQGLSSPVTKSFNRGEC"
3,48 nM,"TR01H028-E22Hh/none-Hi-Kn010G3/L0000-k0 (antibody, V domains shown, one-arm) VH: QVQLVESGGGVVQPGGSLRLSCAASGFTFSNAWMHWVRQAPGKGLEWVAQIKSKSQNYATYYAESVKGRFTISRADSKNSIYLQMNSLKTEDTAVYYCRYVHYSASYGVDIWGQGTTVTVSS VL: DIVMTQSPLSLPVTPGEPASISCRSSQSLVHSNRNTYLHWYQQKPGQAPRLLIYKVSNRFSGVPDRFSGSGSGTDFTLKISRVEAEDVGVYYCGQGTQVPYTFGQGTKLEIKR"
4,67 nM,"TR01H029-E22Hh/none-Hi-Kn010G3/L0000-k0 (antibody, V domains shown, one-arm) VH: QVQLVESGGGLVQPGRSLRLSCSASGFTFSNAWMHWVRQAPGKGLEWVAQIKGKSNNYATYYAESVKGRFTISRADSKNSIYLQMNSLKTEDTAVYYCRYVHYSASYGVDIWGQGTTVTVSS VL: DIVMTQSPLSLPVTPGEPASISCRSSQSLVHSNRNTYLHWYQQKPGQAPRLLIYKVSNRFSGVPDRFSGSGSGTDFTLKISRVEAEDVGVYYCGQGTQVPYTFGQGTKLEIKR"
5,48.8 nM,"TR01H033-E22Hh/none-Hi-Kn010G3/L0000-k0 (antibody, V domains shown, one-arm) VH: QVQLVESGGGLVQPGRSLRLSCAASGFTFSNAWMHWVRQAPGKGLEWVAQIKSKSQNYATYYAESVKGRFTISRADSKNSIYLQMNSLKTEDTAVYYCRYVHYSASYGVDYWGQGTTVTVSS VL: DIVMTQSPLSLPVTPGEPASISCRSSQSLVHSNRNTYLHWYQQKPGQAPRLLIYKVSNRFSGVPDRFSGSGSGTDFTLKISRVEAEDVGVYYCGQGTQVPYTFGQGTKLEIKR"
6,2.9 nM,"TR01H040-E22Hh/none-Hi-Kn010G3/L0206-k0 (antibody, V domains shown, one-arm) VH: QVQLVESGGGLVQPGRSLRLSCAASGFTFSNAWMHWVRQAPGKGLEWVAQIKDKSQNYATYYAESVKGRFTISRADSKNSIYLQMNSLKTEDTAVYYCRYVHYSASYGVDAWGQGTTVTVSS VL: DIVMTQSPLSLPVTPGEPASISCRSSQSPVHSNRNTYLHWYQQKPGQAPRLLIYKVSNRFSGVPDRFSGSGSGTDFTLKISRVEAEDVGVYYCYQGTQVPYTFGQGTKLEIKR"
7,32.4 nM,"TR01H040-E22Hh/none-Hi-Kn010G3/L0203-k0 (antibody, V domains shown, one-arm) VH: QVQLVESGGGLVQPGRSLRLSCAASGFTFSNAWMHWVRQAPGKGLEWVAQIKDKSQNYATYYAESVKGRFTISRADSKNSIYLQMNSLKTEDTAVYYCRYVHYSASYGVDAWGQGTTVTVSS VL: DIVMTQSPLSLPVTPGEPASISCRSSQSPVHSNRNTYIHWYQQKPGQAPRLLIYKVSNRFSGVPDRFSGSGSGTDFTLKISRVEAEDVGVYYCGQGTQVPYTFGQGTKLEIKR"
8,4.16 nM,"TR01H040-E22Hh/none-Hi-Kn010G3/L0208-k0 (antibody, V domains shown, one-arm) VH: QVQLVESGGGLVQPGRSLRLSCAASGFTFSNAWMHWVRQAPGKGLEWVAQIKDKSQNYATYYAESVKGRFTISRADSKNSIYLQMNSLKTEDTAVYYCRYVHYSASYGVDAWGQGTTVTVSS VL: DIVMTQSPLSLPVTPGEPASISCRSSQSPVHSNRNTYLHWYQQKPGQAPRLLIYKVSNRFWGVPDRFSGSGSGTDFTLKISRVEAEDVGVYYCYQGTQVPYTFGQGTKLEIKR"
9,12.4 nM,"TR01H038-E22Hh/none-Hi-Kn010G3/L0000-k0 (antibody, V domains shown, one-arm) VH: QVQLVESGGGLVQPGRSLRLSCAASGFTFSNAWMHWVRQAPGKGLEWVAQIKDKSNNYATYYAESVKGRFTISRADSKNSIYLQMNSLKTEDTAVYYCRYVHYSASYGVDIWGQGTTVTVSS VL: DIVMTQSPLSLPVTPGEPASISCRSSQSLVHSNRNTYLHWYQQKPGQAPRLLIYKVSNRFSGVPDRFSGSGSGTDFTLKISRVEAEDVGVYYCGQGTQVPYTFGQGTKLEIKR"
10,91.1 nM,"TR01H034-E22Hh/none-Hi-Kn010G3/L0000-k0 (antibody, V domains shown, one-arm) VH: QVQLVESGGGLVQPGRSLRLSCAASGFTFSNAWMHWVRQAPGKGLEWVAQIKGKSQNYATYYAESVKGRFTISRADSKNSIYLQMNSLKTEDTAVYYCRYVHYSASYGVDAWGQGTTVTVSS VL: DIVMTQSPLSLPVTPGEPASISCRSSQSLVHSNRNTYLHWYQQKPGQAPRLLIYKVSNRFSGVPDRFSGSGSGTDFTLKISRVEAEDVGVYYCGQGTQVPYTFGQGTKLEIKR"
11,65.4 nM,"TR01H030-E22Hh/none-Hi-Kn010G3/L0000-k0 (antibody, one-arm) VH: QVQLVESGGGVVQPGRSLRLSCAASGFTFSNAWMHWVRQAPGKGLEWVAQIKGKSNNYATYYAESVKGRFTISRADSKNSIYLQMNSLKTEDTAVYYCRYVHYSASYGVDIWGQGTTVTVSS light: DIVMTQSPLSLPVTPGEPASISCRSSQSLVHSNRNTYLHWYQQKPGQAPRLLIYKVSNRFSGVPDRFSGSGSGTDFTLKISRVEAEDVGVYYCGQGTQVPYTFGQGTKLEIKRTVAAPSVFIFPPSDEQLKSGTASVVCLLNNFYPREAKVQWKVDNALQSGNSQESVTEQDSKDSTYSLSSTLTLSKADYEKHKVYACEVTHQGLSSPVTKSFNRGEC"
12,28.1 nM,"TR01H040-E22Hh/none-Hi-Kn010G3/L0201-k0 (antibody, V domains shown, one-arm) VH: QVQLVESGGGLVQPGRSLRLSCAASGFTFSNAWMHWVRQAPGKGLEWVAQIKDKSQNYATYYAESVKGRFTISRADSKNSIYLQMNSLKTEDTAVYYCRYVHYSASYGVDAWGQGTTVTVSS VL: DIVMTQSPLSLPVTPGEPASISCRSSQPPVHSNRNTYLHWYQQKPGQAPRLLIYKVSNRFSGVPDRFSGSGSGTDFTLKISRVEAEDVGVYYCGQGTQVPYTFGQGTKLEIKR"
13,84.9 nM,"TR01H035-E22Hh/none-Hi-Kn010G3/L0000-k0 (antibody, V domains shown, one-arm) VH: QVQLVESGGGLVQPGRSLRLSCAASGFTFSNAWMHWVRQAPGKGLEWVAQIKGKSQNYATYYAESVKGRFTISRADSKNSIYLQMNSLKTEDTAVYYCRYVHYSASYGVDYWGQGTTVTVSS VL: DIVMTQSPLSLPVTPGEPASISCRSSQSLVHSNRNTYLHWYQQKPGQAPRLLIYKVSNRFSGVPDRFSGSGSGTDFTLKISRVEAEDVGVYYCGQGTQVPYTFGQGTKLEIKR"
14,36 nM,"TR01H040-E22Hh/none-Hi-Kn010G3/L0000-k0 (antibody, V domains shown, one-arm) VH: QVQLVESGGGLVQPGRSLRLSCAASGFTFSNAWMHWVRQAPGKGLEWVAQIKDKSQNYATYYAESVKGRFTISRADSKNSIYLQMNSLKTEDTAVYYCRYVHYSASYGVDAWGQGTTVTVSS VL: DIVMTQSPLSLPVTPGEPASISCRSSQSLVHSNRNTYLHWYQQKPGQAPRLLIYKVSNRFSGVPDRFSGSGSGTDFTLKISRVEAEDVGVYYCGQGTQVPYTFGQGTKLEIKR"
15,26.1 nM,"TR01H039-E22Hh/none-Hi-Kn010G3/L0000-k0 (antibody, V domains shown, one-arm) VH: QVQLVESGGGLVQPGRSLRLSCAASGFTFSNAWMHWVRQAPGKGLEWVAQIKDKSQNYATYYAESVKGRFTISRADSKNSIYLQMNSLKTEDTAVYYCRYVHYSASYGVDIWGQGTTVTVSS VL: DIVMTQSPLSLPVTPGEPASISCRSSQSLVHSNRNTYLHWYQQKPGQAPRLLIYKVSNRFSGVPDRFSGSGSGTDFTLKISRVEAEDVGVYYCGQGTQVPYTFGQGTKLEIKR"
16,4.25 nM,"TR01H040-E22Hh/none-Hi-Kn010G3/L0209-k0 (antibody, V domains shown, one-arm) VH: QVQLVESGGGLVQPGRSLRLSCAASGFTFSNAWMHWVRQAPGKGLEWVAQIKDKSQNYATYYAESVKGRFTISRADSKNSIYLQMNSLKTEDTAVYYCRYVHYSASYGVDAWGQGTTVTVSS VL: DIVMTQSPLSLPVTPGEPASISCRSSQSPVHSNRNTYIHWYQQKPGQAPRLLIYKVSNRFSGVPDRFSGSGSGTDFTLKISRVEAEDVGVYYCYQGTQVPYTFGQGTKLEIKR"
17,57.3 nM,"TR01H032-E22Hh/none-Hi-Kn010G3/L0000-k0 (antibody, V domains shown, one-arm) VH: QVQLVESGGGLVQPGRSLRLSCAASGFTFSNAWMHWVRQAPGKGLEWVAQIKSKSQNYATYYAESVKGRFTISRADSKNSIYLQMNSLKTEDTAVYYCRYVHYSASYGVDAWGQGTTVTVSS VL: DIVMTQSPLSLPVTPGEPASISCRSSQSLVHSNRNTYLHWYQQKPGQAPRLLIYKVSNRFSGVPDRFSGSGSGTDFTLKISRVEAEDVGVYYCGQGTQVPYTFGQGTKLEIKR"
18,6.93 nM,"TR01H037-E22Hh/none-Hi-Kn010G3/L0000-k0 (antibody, V domains shown, one-arm) VH: QVQLVESGGGLVQPGRSLRLSCAASGFTFSNAWMPWVRQAPGKGLEWVAQIKGKSNNYATYYAESVKGRFTISRADSKNSIYLQMNSLKTEDTAVYYCRYVHYSASYGVDIWGQGTTVTVSS VL: DIVMTQSPLSLPVTPGEPASISCRSSQSLVHSNRNTYLHWYQQKPGQAPRLLIYKVSNRFSGVPDRFSGSGSGTDFTLKISRVEAEDVGVYYCGQGTQVPYTFGQGTKLEIKR"
19,65 nM,"TR01H036-E22Hh/none-Hi-Kn010G3/L0000-k0 (antibody, V domains shown, one-arm) VH: QVQLVESGGGLVQPGRSLRLSCAASGFTFSNAWMHWVRQAPGKGLEWVAQIKGKSNNYATYYAESVKGRFTISRADSKNSIYLQMNSLKTEDTAVYYCRYVHYSASYGVDYWGQGTTVTVSS VL: DIVMTQSPLSLPVTPGEPASISCRSSQSLVHSNRNTYLHWYQQKPGQAPRLLIYKVSNRFSGVPDRFSGSGSGTDFTLKISRVEAEDVGVYYCGQGTQVPYTFGQGTKLEIKR"
20,34.8 nM,"TR01H040-E22Hh/none-Hi-Kn010G3/L0011-k0 (antibody, V domains shown, one-arm) VH: QVQLVESGGGLVQPGRSLRLSCAASGFTFSNAWMHWVRQAPGKGLEWVAQIKDKSQNYATYYAESVKGRFTISRADSKNSIYLQMNSLKTEDTAVYYCRYVHYSASYGVDAWGQGTTVTVSS VL: DIVMTQSPLSLPVTPGEPASISCRSSQPLVHSNRNTYLHWYQQKPGQAPRLLIYKVSNRFSGVPDRFSGSGSGTDFTLKISRVEAEDVGVYYCGQGTQVPYTFGQGTKLEIKR"
21,22.1 nM,"TR01H040-E22Hh/none-Hi-Kn010G3/L0204-k0 (antibody, V domains shown, one-arm) VH: QVQLVESGGGLVQPGRSLRLSCAASGFTFSNAWMHWVRQAPGKGLEWVAQIKDKSQNYATYYAESVKGRFTISRADSKNSIYLQMNSLKTEDTAVYYCRYVHYSASYGVDAWGQGTTVTVSS VL: DIVMTQSPLSLPVTPGEPASISCRSSQSPVHSNRNTYLHWYQQKPGQAPRLLIYKVSNRFRGVPDRFSGSGSGTDFTLKISRVEAEDVGVYYCGQGTQVPYTFGQGTKLEIKR"
